Results published in publication PMC3964903.

Molecular target: calcium/calmodulin-dependent protein kinase II (CaMKII) (mouse (endogenous in hippocampal slices)) (UniProt P11798)
UniProt P11798, sequence (P11798 whole entry): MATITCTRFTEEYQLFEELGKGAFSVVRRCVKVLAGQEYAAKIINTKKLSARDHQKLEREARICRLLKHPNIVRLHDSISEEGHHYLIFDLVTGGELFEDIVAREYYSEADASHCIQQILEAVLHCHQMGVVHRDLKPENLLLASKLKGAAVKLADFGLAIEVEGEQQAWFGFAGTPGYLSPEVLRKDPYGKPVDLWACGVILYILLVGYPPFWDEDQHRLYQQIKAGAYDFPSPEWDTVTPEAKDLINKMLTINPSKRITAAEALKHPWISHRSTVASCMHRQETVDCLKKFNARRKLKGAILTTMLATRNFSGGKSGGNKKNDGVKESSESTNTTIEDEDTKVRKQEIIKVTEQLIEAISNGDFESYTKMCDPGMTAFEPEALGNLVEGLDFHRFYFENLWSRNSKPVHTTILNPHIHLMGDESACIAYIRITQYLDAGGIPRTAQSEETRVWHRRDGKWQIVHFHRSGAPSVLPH

Q: With “NMDA receptor (NMDAR) (from UniProt P35438 19-938; Q01097 27-1482) (complex)” as the substance, how does the CaMKII relative activity (Cyclex CaMKII assay kit) after 10 min OGD with Tat-GluN2B, compared with control (relative to control) read?
A: 0.97

Q: And the amplitude of NMDAR-mediated i-LTP (NMDA fEPSPs) in hippocampal slices exposed to OGD for 10 min with Tat-GluN2B, compared with OGD alone (relative to OGD)?
A: 0.73
